Target: Gluc-LHCGRv4 (Gaussia luciferase fused to the N-terminus of the luteinizing hormone/chorionic gonadotropin … (human, UniProt P22888 27-699))
Experiment: FRET or BRET

Sequence of Gluc-LHCGRv4 (Gaussia luciferase fused to the N-terminus of the luteinizing hormone/chorionic gonadotropin … (P22888 27-699): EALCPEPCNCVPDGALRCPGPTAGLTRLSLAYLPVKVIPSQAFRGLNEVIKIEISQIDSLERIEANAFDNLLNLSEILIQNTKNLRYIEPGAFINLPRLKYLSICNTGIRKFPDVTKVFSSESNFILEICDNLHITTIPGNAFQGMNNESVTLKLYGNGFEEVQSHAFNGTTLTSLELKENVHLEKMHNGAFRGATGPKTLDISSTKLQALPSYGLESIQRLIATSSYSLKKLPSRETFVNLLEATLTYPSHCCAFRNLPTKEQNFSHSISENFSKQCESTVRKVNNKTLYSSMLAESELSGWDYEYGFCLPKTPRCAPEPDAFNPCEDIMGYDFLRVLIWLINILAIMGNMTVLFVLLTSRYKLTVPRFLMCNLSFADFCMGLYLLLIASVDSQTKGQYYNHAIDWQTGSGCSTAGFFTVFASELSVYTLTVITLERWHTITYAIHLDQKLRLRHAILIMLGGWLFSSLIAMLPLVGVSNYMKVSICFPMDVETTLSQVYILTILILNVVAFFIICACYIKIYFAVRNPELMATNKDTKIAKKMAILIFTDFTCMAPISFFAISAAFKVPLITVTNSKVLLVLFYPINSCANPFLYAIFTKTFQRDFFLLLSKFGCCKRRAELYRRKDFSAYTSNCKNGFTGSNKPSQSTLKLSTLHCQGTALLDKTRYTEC

B1: LHB^WT-eGFP/CGA (luteinizing hormone: LH beta subunit fused to eGFP, co-expressed with the common glycoprotein alpha subunit) (complex)
chain 1: SREPLRPWCHPINAILAVEKEGCPVCITVNTTICAGYCPTMMRVLQAVLPPLPQVVCTYRDVRFESIRLPGCPRGVDPVVSFPVALSCRCGPCRRSTSDCGGPKDHPLTCDHPQLSGLLFL
chain 2: not shown
  BRET ratio, fold over stimulation with unlabeled hormone: 4 fold

From doi:10.1101/2023.01.21.525003 (bioRxiv, 2023)
